Data: patent US11702475B2, “Cysteine engineered fibronectin type III domain binding molecules” (Janssen Biotech, Inc., priority 2013, dated 2023)

How the values were obtained:
[1] = molecular target: T1, EGFR-Fc (recombinant human extracellular domain of EGFR fused to an IgG1 Fc) (Homo sapiens, UniProt P00533); test: Affinity of FN3 domains to EGFR-Fc by surface plasmon resonance (ProteOn), incl. off-rate screen; type: binding; conditions: SPR ProteOn, 1:1 Langmuir fit
T1 construct: purchased R&D Systems
Procedure: Select EGFR-binding FN3 domains were screened to identify those with slow off-rates (koff) in binding to EGFR-Fc on a ProteOn XPR-36 instrument (Bio-Rad) to facilitate selection of high affinity binders. Goat anti-human Fc IgG (R&D systems), at a concentration of 5 μg/mL, was directly immobilized via amine coupling (at pH 5.0) on all 6 ligand channels in horizontal orientation on the chip with a flow rate of 30 μL/min in PBS containing 0.005% Tween-20. The immobilization densities averaged about 1500 Response Units (RU) with less than 5% variation among different channels. EGFR-Fc was captured on the anti-human Fc IgG surface to a density around 600 RU in vertical ligand orientation. All tested FN3 domains were normalized to a concentration of 1 μM and tested for their binding in horizontal orientation. […] The dissociation phase was monitored for 10 minutes at a flow rate of 100 μL/min. […]
Binding affinity of selected EGFR-binding FN3 domains to recombinant EGFR extracellular domain was further characterized by surface Plasmon resonance methods using a Proteon Instrument (BioRad). […] The dissociation phase for all concentrations of each EGFR-binding FN3 domain was monitored at a flow rate of 100 μL/min for 30 minutes (for those with koff˜10^−2 s^−1 from off-rate screening), or 1 hour (for those with koff˜10^−3 s^−1 or slower). […]

EGFR on A431 cells = molecular target: T2, EGFR on A431 cells (Homo sapiens, UniProt P00533); test: A431 cell binding assay; conditions: 1 hour room temperature
T2 construct: A431 cells (American Type Culture Collection, cat. #CRL-1555) over-express EGFR; host or cells: A431
Procedure: To assess the ability of different FN3 domains to bind EGFR in a more physiological context, their ability to bind A431 cells was measured. A431 cells (American Type Culture Collection, cat. #CRL-1555) over-express EGFR with ˜2×10^6 receptors per cell. Cells were plated at 5,000/well in opaque black 96-well plates and allowed to attach overnight at 37° C., in a humidified 5% CO2 atmosphere. FN3 domain-expressing bacterial lysates were diluted 1,000-fold into FACS stain buffer (Becton Dickinson) and incubated for 1 hour at room temperature in triplicate plates. Lysates were removed and cells were washed 3 times with 150 μL/well of FACS stain buffer. Cells were incubated with 50 μL/well of anti-penta His-Alexa488 antibody conjugate (Qiagen) diluted 1:100 in FACS stain buffer for 20 minutes at room temperature. Cells were washed 3 times with 150 μL/well of FACS stain buffer, after which wells were filled with 100 μL of FACS stain buffer and read for fluorescence at 488 nm using an Acumen eX3 reader. […]
A431 cells were plated at 5,000/well in opaque black 96-well plates and allowed to attach overnight at 37° C., in a humidified 5% CO2 atmosphere. […] Cells were washed 3 times with 150 μL/well of FACS stain buffer, after which wells were filled with 100 μL of FACS stain buffer and read for fluorescence at 488 nm using an Acumen eX3 reader. […]

NCI-H292 cells = test: NCI-H292 growth assay; type: cell-based, human; conditions: 120 hours, CellTiter-Glo
Procedure: (§1) Inhibition of EGFR-dependent cell growth was assessed by measuring viability of the EGFR over-expressing human tumor cell lines, NCI-H292 and NCI-H322 (American Type Culture Collection, cat. #CRL-1848 & #CRL-5806, respectively), following exposure to EGFR-binding FN3 domains. Cells were plated at 500 cells/well (NCI-H292) or 1,000 cells/well (NCI-H322) in opaque white 96-well tissue culture-treated plates (Nunc) in 1004/well of RPMI medium (Gibco) containing GlutaMAX™ and 10 mM HEPES, supplemented with 10% heat inactivated fetal bovine serum (Gibco) and 1% penicillin/streptomycin (Gibco), and allowed to attach overnight at 37° C. in a humidified 5% CO2 atmosphere. Cells were treated by addition of 54/well of phosphate-buffered saline (PBS) containing a concentration range of EGFR-binding FN3 domains. […] Viable cells were detected by addition of 754/well of CellTiter-Glo® reagent (Promega), followed by mixing on a plate shaker for 2 minutes, and incubation in the dark at room temperature for a further 10 minutes. Plates were read on a SpectraMax M5 plate reader (Molecular Devices) set to luminescence mode, with a read time of 0.5 seconds/well against a blank of medium only. […] IC50 values were determined by fitting data to the equation for a sigmoidal dose response with variable slope using GraphPad Prism 4 (GraphPad Software).

NCI-H322 cells = test: NCI-H322 growth assay; type: cell-based, human; conditions: 120 hours, CellTiter-Glo
Procedure: as §1

- Kd [1]: 0.00251 µM
- EC50 (EGFR on A431 cells): 0.0086 µM
- IC50 (NCI-H292 cells): 0.044 µM
- IC50 (NCI-H322 cells): 0.039 µM
B1: P54AR4-47: EGFR-binding FN3 domain, SEQ ID NO: 20 (protein)
chain: LPAPKNLVVSEVTEDSLRLSWGYNGDHFDSFLIQYQESEKVGEAINLTVPGSERSYDLTGLKPGTEYTVSIYGVHNVYKDTNMRGLPLSAEFTT
modifications: EGFR binding FN3 domain
